In patent US20200262877A1, “ION CHANNEL-BINDING PEPTIDES AND METHODS OF USE THEREOF” (priority 2017, published 2020):

Assays:
[1] = tested on: GABA; assay: Ion channel panel (IonWorks Barracuda): GABA; type: cell-based; conditions: 100% = no change, <100% = inhibition
Method: (§1) This example describes a method for assaying ion channel activity in cells.
(§2) Peptides were screened in duplicate at final concentrations of 20 μM and 200 nM, as determined by amino acid analysis, and diluted into HEPES buffered physiological saline (HBPS). HEK293 or CHO cells from the American Type Culture Collection (ATCC) were transfected with the appropriate ion channel before use. HEK293 cells were grown in Dulbecco's Modified Eagle Medium/Nutrient Mixture F-12, and CHO cells were cultured in Ham's F-12 media. All cultures were supplemented with 10% fetal bovine serum, 100 U/ml penicillin G, 100 μg/ml streptomycin sulfate, and the appropriate selection antibiotics. Prior to use, cells were washed twice with Hank's Balanced Salt Solution, and treated with Accutase cell detachment solution (Sigma-Aldrich). Cells were then washed. Peptides and controls were incubated with cells for at least five minutes.
(§3) Percent inhibition was defined as: (1-(Ipeptide/Icontrol))×100%).
(§4) Percent values were calculated using the following formula: % activation=(IPeptide/Icontrol)×100%, where IPeptide is the current produced by co-application a peptide with agonist, and Icontrol refers to the current produced by stimulation in control. Control used for each ion channel is the reference compound matched to a particular channel, as illustrated in TABLE 10 below.

[2] = molecular target: T1, Cav2.2 (Homo sapiens, UniProt Q00975); assay: cell-based; conditions: 100% = no change, <100% = inhibition
T1 construct: host or cells: HEK293 or CHO
Method: as §1, §2, §3, §4

[3] = molecular target: T2, Kv2.1 (Homo sapiens, UniProt Q14721); assay: cell-based; conditions: 100% = no change, <100% = inhibition
T2 construct: host or cells: HEK293 or CHO
Method: as §1, §2, §3, §4

[4] = molecular target: T3, Cav2.1 (Homo sapiens, UniProt O00555); assay: cell-based; conditions: 100% = no change, <100% = inhibition
T3 construct: host or cells: HEK293 or CHO
Method: as §1, §2, §3, §4

[5] = molecular target: T4, α3β4 (Homo sapiens, UniProt P30926+P32297); assay: Ion channel panel (IonWorks Barracuda): α3β4; type: cell-based; conditions: 100% = no change, <100% = inhibition
T4 construct: host or cells: HEK293 or CHO
Method: as §1, §2, §3, §4

[6] = molecular target: T5, Kv1.2 (Homo sapiens, UniProt P16389); assay: cell-based; type: cell-based; conditions: 100% = no change, <100% = inhibition
T5 construct: host or cells: HEK293 or CHO
Method: as §1, §2, §3, §4

[7] = molecular target: T6, Kv1.1 (Homo sapiens, UniProt Q09470); assay: cell-based; type: cell-based; conditions: 100% = no change, <100% = inhibition
T6 construct: host or cells: HEK293 or CHO
Method: as §1, §2, §3, §4

[8] = molecular target: T7, Kv1.3 (Homo sapiens, UniProt P22001); assay: cell-based; type: cell-based; conditions: 100% = no change, <100% = inhibition
T7 construct: host or cells: HEK293 or CHO
Method: as §1, §2, §3, §4

[9] = molecular target: T8, Nav1.7 (Homo sapiens, UniProt Q15858); assay: cell-based; type: cell-based; conditions: 100% = no change; for Activity of Nav1.7 with peptide, expressed as a percentage of the reference compound: peptide at 0.2 μM; for Activity of Nav1.7 with peptide (percentage of the reference compound): peptide at 20 μM
T8 construct: host or cells: HEK293 or CHO
Method: as §1
as §2, with “Peptides were screened in duplicate at final concentrations of 20 μM and 200 nM, as determined by amino acid analysis, and diluted into HEPES buffered physiological saline (HBPS).” left out
as §3, §4

[10] = molecular target: T9, NR2A (Homo sapiens, UniProt Q12879); assay: Ion channel panel (IonWorks Barracuda): NR2A; type: cell-based; conditions: 100% = no change, <100% = inhibition
T9 construct: host or cells: HEK293 or CHO
Method: as §1, §2, §3, §4

[11] = molecular target: T10, TRPA1 (Homo sapiens, UniProt O75762); assay: Ion channel panel (IonWorks Barracuda): TRPA1; type: cell-based; conditions: 100% = no change, <100% = inhibition
T10 construct: host or cells: HEK293 or CHO
Method: as §1, §2, §3, §4

[12] = molecular target: T11, α4β2 (Homo sapiens, UniProt P17787+P43681); assay: Ion channel panel (IonWorks Barracuda): α4β2; type: cell-based; conditions: 100% = no change, <100% = inhibition
T11 construct: host or cells: HEK293 or CHO
Method: as §1, §2, §3, §4

[13] = molecular target: T12, 5HT3a (Homo sapiens, UniProt P46098); assay: Ion channel panel (IonWorks Barracuda): 5HT3a; type: cell-based
T12 construct: host or cells: HEK293 or CHO
T12 sequence (P46098 whole entry, looked up): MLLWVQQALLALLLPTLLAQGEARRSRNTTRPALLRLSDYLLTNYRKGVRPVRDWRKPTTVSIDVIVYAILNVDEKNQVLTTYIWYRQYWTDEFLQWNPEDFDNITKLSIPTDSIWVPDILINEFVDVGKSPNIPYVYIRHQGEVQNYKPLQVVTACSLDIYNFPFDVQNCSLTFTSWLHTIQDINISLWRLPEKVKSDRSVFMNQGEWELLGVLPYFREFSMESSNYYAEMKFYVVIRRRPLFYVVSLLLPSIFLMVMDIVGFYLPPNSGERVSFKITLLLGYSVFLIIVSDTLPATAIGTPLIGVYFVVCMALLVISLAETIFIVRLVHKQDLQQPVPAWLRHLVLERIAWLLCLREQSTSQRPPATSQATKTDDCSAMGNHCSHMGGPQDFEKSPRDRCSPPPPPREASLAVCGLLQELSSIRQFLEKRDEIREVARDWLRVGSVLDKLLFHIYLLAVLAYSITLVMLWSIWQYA
Method: as §1, §2, §3, §4

[14] = molecular target: T13, NR2B (Homo sapiens, UniProt Q13224); assay: Ion channel panel (IonWorks Barracuda): NR2B; type: cell-based; conditions: 100% = no change, <100% = inhibition
T13 construct: host or cells: HEK293 or CHO
Method: as §1, §2, §3, §4

[15] = molecular target: Nav1.5 (Homo sapiens, UniProt Q14524); assay: in vitro; conditions: 100% = no change; for Activity of Nav1.5 with peptide, expressed as a percentage of the reference compound: peptide at 0.2 μM; for Activity of Nav1.5 with peptide (percentage of the reference compound): peptide at 20 μM
Method: as §1, §2, §3, §4

[16] = molecular target: hERG (Homo sapiens, UniProt Q12809); assay: in vitro; conditions: 100% = no change, <100% = inhibition
Method: as §1, §2, §3, §4

[17] = molecular target: T14, TRPV1 (Homo sapiens, UniProt Q8NER1); assay: Ion channel panel (IonWorks Barracuda): TRPV1; type: cell-based; conditions: 100% = no change, <100% = inhibition
T14 construct: host or cells: HEK293 or CHO
Method: as §1, §2, §3, §4

[18] = molecular target: T15, Kir2.1 (Homo sapiens, UniProt P63252); assay: Ion channel panel (IonWorks Barracuda): Kir2.1; type: cell-based; conditions: 100% = no change, <100% = inhibition
T15 construct: host or cells: HEK293 or CHO
Method: as §1, §2, §3, §4

[19] = first of two Nav1.7 columns (probably TP1)
[20] = second of two Nav1.7 columns (probably TP2)
[21] = first of two Nav1.5 columns (probably TP1)
[22] = second of two Nav1.5 columns (probably TP2)

Chain of Nav1.5 (Q14524 whole entry): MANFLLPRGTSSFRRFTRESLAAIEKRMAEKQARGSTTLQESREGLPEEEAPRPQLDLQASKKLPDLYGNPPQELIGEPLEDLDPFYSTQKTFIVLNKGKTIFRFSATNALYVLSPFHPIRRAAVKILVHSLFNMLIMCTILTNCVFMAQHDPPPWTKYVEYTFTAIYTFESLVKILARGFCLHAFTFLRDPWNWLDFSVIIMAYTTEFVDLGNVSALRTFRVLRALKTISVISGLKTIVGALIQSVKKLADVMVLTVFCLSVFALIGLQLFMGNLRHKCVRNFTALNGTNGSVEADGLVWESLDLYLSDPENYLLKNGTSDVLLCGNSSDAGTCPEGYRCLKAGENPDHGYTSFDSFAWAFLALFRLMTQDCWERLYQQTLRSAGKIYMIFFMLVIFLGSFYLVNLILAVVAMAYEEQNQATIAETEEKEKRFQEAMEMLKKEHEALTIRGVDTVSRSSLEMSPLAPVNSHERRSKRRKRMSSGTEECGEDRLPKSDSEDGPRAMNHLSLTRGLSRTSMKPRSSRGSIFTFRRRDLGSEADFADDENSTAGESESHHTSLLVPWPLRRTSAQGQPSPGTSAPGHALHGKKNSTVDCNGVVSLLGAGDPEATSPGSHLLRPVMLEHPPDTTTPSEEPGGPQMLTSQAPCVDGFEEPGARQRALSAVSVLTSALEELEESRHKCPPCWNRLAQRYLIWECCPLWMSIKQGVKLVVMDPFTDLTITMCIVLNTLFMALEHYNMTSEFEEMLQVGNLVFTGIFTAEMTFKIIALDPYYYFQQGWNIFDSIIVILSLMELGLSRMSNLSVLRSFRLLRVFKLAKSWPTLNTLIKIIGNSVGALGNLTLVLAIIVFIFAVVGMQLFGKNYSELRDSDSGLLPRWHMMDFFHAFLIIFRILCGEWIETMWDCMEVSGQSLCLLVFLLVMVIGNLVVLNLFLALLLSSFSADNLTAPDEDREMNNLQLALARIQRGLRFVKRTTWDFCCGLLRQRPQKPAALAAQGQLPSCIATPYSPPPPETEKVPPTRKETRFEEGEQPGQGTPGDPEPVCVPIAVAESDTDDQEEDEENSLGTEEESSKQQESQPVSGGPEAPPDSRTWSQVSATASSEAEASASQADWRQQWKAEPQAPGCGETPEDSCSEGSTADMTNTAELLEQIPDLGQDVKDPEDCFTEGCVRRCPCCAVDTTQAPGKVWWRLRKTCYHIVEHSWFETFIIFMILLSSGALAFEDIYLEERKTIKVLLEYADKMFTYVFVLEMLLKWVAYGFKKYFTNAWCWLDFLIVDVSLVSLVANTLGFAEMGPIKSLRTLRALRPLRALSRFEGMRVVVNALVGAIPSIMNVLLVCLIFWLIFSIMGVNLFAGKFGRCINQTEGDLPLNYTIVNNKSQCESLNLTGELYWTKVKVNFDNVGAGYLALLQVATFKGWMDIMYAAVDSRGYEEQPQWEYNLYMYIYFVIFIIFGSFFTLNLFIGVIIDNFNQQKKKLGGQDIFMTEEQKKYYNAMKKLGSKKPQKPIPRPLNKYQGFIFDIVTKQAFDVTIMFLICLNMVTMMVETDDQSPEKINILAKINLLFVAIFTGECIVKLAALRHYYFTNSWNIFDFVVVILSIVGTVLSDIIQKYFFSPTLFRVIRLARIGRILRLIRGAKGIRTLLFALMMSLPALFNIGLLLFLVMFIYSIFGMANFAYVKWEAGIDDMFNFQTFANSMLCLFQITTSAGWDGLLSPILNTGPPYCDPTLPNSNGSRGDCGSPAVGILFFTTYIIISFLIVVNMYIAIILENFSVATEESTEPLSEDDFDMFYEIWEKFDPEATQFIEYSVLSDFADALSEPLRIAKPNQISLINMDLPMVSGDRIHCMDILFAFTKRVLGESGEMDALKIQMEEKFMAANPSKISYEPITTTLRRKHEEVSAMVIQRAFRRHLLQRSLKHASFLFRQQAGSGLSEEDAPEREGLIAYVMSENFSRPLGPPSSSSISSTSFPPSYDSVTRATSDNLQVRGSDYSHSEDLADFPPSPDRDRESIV
T8 sequence (Q15858 whole entry): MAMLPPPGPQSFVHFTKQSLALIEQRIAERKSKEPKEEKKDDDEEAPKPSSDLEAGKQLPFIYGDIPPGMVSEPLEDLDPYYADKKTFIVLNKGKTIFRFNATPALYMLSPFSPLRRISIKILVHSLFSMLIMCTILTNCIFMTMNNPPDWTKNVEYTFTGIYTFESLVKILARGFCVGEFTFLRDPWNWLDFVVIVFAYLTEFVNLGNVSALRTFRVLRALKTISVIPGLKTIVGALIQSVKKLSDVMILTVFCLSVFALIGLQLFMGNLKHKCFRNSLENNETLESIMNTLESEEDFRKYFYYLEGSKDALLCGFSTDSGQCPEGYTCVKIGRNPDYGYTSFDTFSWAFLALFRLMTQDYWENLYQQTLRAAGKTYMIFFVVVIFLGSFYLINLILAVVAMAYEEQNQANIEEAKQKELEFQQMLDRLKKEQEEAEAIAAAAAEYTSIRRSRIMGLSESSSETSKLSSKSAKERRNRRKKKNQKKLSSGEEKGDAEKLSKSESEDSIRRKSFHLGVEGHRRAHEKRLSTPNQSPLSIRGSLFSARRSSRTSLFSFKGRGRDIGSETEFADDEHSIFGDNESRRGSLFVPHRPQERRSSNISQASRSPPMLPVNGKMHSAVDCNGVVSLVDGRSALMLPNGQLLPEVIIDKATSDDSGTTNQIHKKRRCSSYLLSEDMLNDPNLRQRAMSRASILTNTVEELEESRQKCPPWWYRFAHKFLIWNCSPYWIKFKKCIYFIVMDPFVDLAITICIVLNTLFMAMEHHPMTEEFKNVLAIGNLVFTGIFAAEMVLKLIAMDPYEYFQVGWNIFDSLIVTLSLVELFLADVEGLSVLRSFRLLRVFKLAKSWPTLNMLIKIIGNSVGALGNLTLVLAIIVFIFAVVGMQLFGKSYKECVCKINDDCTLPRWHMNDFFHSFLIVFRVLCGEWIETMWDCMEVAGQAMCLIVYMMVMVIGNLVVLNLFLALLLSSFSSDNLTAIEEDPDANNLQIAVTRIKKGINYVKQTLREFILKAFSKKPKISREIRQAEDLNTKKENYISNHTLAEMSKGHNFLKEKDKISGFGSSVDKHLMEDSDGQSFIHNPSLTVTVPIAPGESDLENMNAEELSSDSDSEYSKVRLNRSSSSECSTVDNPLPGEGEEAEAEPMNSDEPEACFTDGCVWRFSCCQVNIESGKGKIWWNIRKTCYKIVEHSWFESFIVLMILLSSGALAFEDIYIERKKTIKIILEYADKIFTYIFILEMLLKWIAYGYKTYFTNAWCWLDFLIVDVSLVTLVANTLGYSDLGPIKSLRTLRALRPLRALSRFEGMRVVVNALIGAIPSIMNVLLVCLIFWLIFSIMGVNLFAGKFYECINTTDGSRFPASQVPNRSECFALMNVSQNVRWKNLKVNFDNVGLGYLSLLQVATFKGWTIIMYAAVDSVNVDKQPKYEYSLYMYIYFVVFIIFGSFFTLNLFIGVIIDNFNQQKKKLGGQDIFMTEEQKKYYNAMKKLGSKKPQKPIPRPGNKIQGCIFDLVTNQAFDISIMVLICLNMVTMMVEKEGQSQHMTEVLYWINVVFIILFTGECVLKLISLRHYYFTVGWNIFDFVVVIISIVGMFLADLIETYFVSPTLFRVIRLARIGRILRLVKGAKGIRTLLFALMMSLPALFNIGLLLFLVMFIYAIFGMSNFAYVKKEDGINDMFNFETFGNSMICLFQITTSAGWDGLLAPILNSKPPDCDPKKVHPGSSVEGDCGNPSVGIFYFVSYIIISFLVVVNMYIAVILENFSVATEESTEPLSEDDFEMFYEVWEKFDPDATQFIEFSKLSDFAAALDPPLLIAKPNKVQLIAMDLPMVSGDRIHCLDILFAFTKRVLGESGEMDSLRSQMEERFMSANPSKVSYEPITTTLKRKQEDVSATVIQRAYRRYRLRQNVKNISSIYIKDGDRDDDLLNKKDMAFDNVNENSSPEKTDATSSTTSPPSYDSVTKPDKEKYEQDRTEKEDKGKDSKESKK
T15 sequence (P63252 whole entry): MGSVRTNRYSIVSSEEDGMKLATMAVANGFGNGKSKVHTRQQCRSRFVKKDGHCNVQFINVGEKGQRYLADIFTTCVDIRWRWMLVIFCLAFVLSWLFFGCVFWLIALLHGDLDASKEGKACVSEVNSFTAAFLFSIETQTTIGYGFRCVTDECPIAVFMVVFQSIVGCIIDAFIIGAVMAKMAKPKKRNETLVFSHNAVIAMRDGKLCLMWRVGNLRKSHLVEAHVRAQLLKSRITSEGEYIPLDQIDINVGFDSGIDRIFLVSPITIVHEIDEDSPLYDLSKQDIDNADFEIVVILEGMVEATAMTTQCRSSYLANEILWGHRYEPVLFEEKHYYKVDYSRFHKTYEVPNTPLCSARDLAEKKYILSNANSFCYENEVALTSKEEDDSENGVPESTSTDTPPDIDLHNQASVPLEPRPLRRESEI
T6 sequence (Q09470 whole entry): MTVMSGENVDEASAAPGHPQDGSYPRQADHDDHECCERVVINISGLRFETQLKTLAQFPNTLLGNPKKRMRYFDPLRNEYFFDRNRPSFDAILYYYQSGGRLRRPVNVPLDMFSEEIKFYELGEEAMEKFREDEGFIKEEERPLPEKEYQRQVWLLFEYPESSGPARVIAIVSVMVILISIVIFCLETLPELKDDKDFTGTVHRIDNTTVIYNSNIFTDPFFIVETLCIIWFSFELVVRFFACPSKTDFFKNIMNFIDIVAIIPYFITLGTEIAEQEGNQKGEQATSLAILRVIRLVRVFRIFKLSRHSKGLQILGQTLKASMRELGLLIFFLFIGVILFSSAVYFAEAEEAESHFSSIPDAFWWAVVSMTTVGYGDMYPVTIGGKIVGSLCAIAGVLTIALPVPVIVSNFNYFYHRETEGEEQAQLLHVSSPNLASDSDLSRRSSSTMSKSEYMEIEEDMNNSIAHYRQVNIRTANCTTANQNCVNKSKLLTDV

29 (GSVFINVKCRGSPECLPKCKEAIGKSAGKCMNGKCKCYP) [compound 29]
Activity of GABA with peptide, expressed as a percentage of the reference compound ([1]; peptide at 0.2 μM): 123% | Activity of GABA with peptide (percentage of the reference compound) ([1]; peptide at 20 μM): 104% | Activity of Cav2.2 with peptide, expressed as a percentage of the reference compound ([2]; peptide at 0.2 μM): 116% | Activity of Cav2.2 with peptide (percentage of the reference compound) ([2]; peptide at 20 μM): 100% | Activity of Kv2.1 with peptide, expressed as a percentage of the reference compound ([3]; peptide at 0.2 μM): 91% | Activity of Kv2.1 with peptide (percentage of the reference compound) ([3]; peptide at 20 μM): 121% | Activity of Cav2.1 with peptide, expressed as a percentage of the reference compound ([4]; peptide at 0.2 μM): 100% | Activity of Cav2.1 with peptide (percentage of the reference compound) ([4]; peptide at 20 μM): 111% | Activity of a3b4 with peptide, expressed as a percentage of the reference compound ([5]; peptide at 0.2 μM): 108% | Activity of a3b4 with peptide (percentage of the reference compound) ([5]; peptide at 20 μM): 98% | Activity of Kv1.2 with peptide, expressed as a percentage of the reference compound ([6]; peptide at 0.2 μM): 77% | Activity of Kv1.2 with peptide (percentage of the reference compound) ([6]; peptide at 20 μM): 42% | Activity of Kv1.1 with peptide, expressed as a percentage of the reference compound ([7]; peptide at 0.2 μM): 97% | Activity of Kv1.1 with peptide (percentage of the reference compound) ([7]; peptide at 20 μM): 64% | Activity of Kv1.3 with peptide, expressed as a percentage of the reference compound ([8]; peptide at 0.2 μM): 21% | Activity of Kv1.3 with peptide (percentage of the reference compound) ([8]; peptide at 20 μM): 0% | Activity of Nav1.7 with peptide, expressed as a percentage of the reference compound [9, 19]: 97% | Activity of Nav1.7 with peptide, expressed as a percentage of the reference compound [9, 20]: 111% | Activity of Nav1.7 with peptide (percentage of the reference compound) [9, 19]: 67% | Activity of Nav1.7 with peptide (percentage of the reference compound) [9, 20]: 62% | Activity of NR2A with peptide, expressed as a percentage of the reference compound ([10]; peptide at 0.2 μM): 93% | Activity of NR2A with peptide (percentage of the reference compound) ([10]; peptide at 20 μM): 87% | Activity of TRPA1 with peptide, expressed as a percentage of the reference compound ([11]; peptide at 0.2 μM): 89% | Activity of TRPA1 with peptide (percentage of the reference compound) ([11]; peptide at 20 μM): 109% | Activity of a4b2 with peptide, expressed as a percentage of the reference compound ([12]; peptide at 0.2 μM): 108% | Activity of a4b2 with peptide (percentage of the reference compound) ([12]; peptide at 20 μM): 101% | Activity of 5HT3a with peptide (percentage of the reference compound) [13]: 91% | Activity of 5HT3a with peptide, expressed as a percentage of the reference compound [13]: 122% | Activity of NR2B with peptide, expressed as a percentage of the reference compound ([14]; peptide at 0.2 μM): 101% | Activity of NR2B with peptide (percentage of the reference compound) ([14]; peptide at 20 μM): 82% | Activity of Nav1.5 with peptide, expressed as a percentage of the reference compound [15, 21]: 110% | Activity of Nav1.5 with peptide, expressed as a percentage of the reference compound [15, 22]: 114% | Activity of Nav1.5 with peptide (percentage of the reference compound) [15, 21]: 103% | Activity of Nav1.5 with peptide (percentage of the reference compound) [15, 22]: 99% | Activity of hERG with peptide, expressed as a percentage of the reference compound ([16]; peptide at 0.2 μM): 95% | Activity of hERG with peptide (percentage of the reference compound) ([16]; peptide at 20 μM): 78% | Activity of TRPV1 with peptide, expressed as a percentage of the reference compound ([17]; peptide at 0.2 μM): 109% | Activity of TRPV1 with peptide (percentage of the reference compound) ([17]; peptide at 20 μM): 86% | Activity of Kir2.1 with peptide, expressed as a percentage of the reference compound ([18]; peptide at 0.2 μM): 103% | Activity of Kir2.1 with peptide (percentage of the reference compound) ([18]; peptide at 20 μM): 97%
